Experimental data from the DeepSol protein solubility set.

Assay: soluble on expression in E. coli; label from the status in PepcDB or PDB records

Row | Sequence | soluble on expression in E. coli
1 | LGGAQETAETMAKESMVLLKNTDDTLPLSGDESVLLTGPGVDSNGNNTRALMQHGGWTLGWQGASAGGPFPRQNLLEAELRARVGSLTHVPTSYENTTWWAGEGDGGNQQSDENGNFDFTAEQRSRVESAGPESDVVVVVLGEGTHNEGFGDRDELVLDESQQALLDTVVESTDDSAPIIGVMLAGSPRGSPETFSQLDALLFAGQPGSDGGVAIAETLVGEYNPSGKLPFSWPENVGTTPVQYTRYDPTSTGGTDNTAIYEYGHGLSYTDF | not soluble
2 | MGSDKIHHHHHHMGSLNMPPLDFDAQKTPHIADLRSPQCRNCDIVREIAFCADLSPDEVKRLATVRCHAALPASFTVFREGDEVDHVYSISAGAVKLYKLMPDGRRQIIGFLFSGDLFGLGIDGGYCYTAETITPTHLCRFTHRKLDSLIAEIPRLERRMFTMAVKDLVSAQDQMLLLGRKTAREKVATFLLRLSRRSIQMGLPPSPVALPMSRADIADYLGLTIETVSRTFTQLKRDGIIGLPASGHCIVNDWEALRELAEGG | not soluble
3 | GSMDALNSKEQQEFQKVVEQKQMKDFMRLYSNLVERCFTDCVNDFTTSKLTNKEQTCIMKCSEKFLKHSERVGQRFQEQNAALGQGLGR | soluble
4 | MGHHHHHHSHMFTMLCINGTTPRPLPVPSPFGCMIFFFFKNPWKQCLLQGWLGARPIHLLGYLPLSLLWCPFPLPCARCSVVYISSPRHGAHAPRDMILSLVLAHGALYKELGGRGRKWEPS | not soluble
5 | MQWQELYRQRVCSADEAVVDSLKPGTKVVFGHAAAAPVRFSQAMYRQREKLENITVFHMLYFGDAPHLAPEMRSHVHPTLNFLEGNSRPASRDRRVDFIPCHFHEVPELFRQGFFPLDVAVVQVSTPNEEGYCSFGVSCDYTKAAAECAPVVVAEVNKQMPFIGGENLIHISKLTHIIEVDEPIAEVLPPAISDLELRIGQNCASLIKDGDTLQLGIGGIPDAVLRALEGHKDLGIHTEMFTDGVMRMIRKGIINGKKKTLHPEKVVTSLIFGSKELYDFVNNNPVIECYPGDYINNPDVIGKNDRMVSINSCLEMDLMGQAASESIGYEQFSGSGGQVDFLRGAKRSKGGISIMAFPSTAKKGTESRIVPILKEGACVTTGRNEVDYVVTEYGVARLRGATLRQRAEALTAIAHPDFRPALEEEIRRRFELEHHHHHH | soluble
6 | MQDLIKQYNTTLRQLREAQKDAKEEDVKVLTDMISDITYSLEWMKKARRPGNRRGVERLAAYQRERACDPLLMQRYFRSMDDNLYEWDNHQQEHSIGEWDKVRLEDALSLLTEREKEVYLMSRGYCLTYREIARYLDITCSTVQSMIERAEKKIARQVNESLFCNCG | not soluble
7 | MTVTSMLDNVLRIATRQSPLALWQAHYVKDALMATHPGLTVELVPMVTRGDVILDTPLAKVGGKGLFVKELEIALLEKRADIAVHSMKDVPVAFPDGLGLVTICEREDPRDAFVSNKYHSLDDLPAGSIVGTSSLRRQCQLAERRPDLIIRSLRGNVGTRLGKLDNGDYDAIILAVAGLKRLGLESRIRTALPPDVSLPAVGQGAVGIECRLDDARTQALLAPLNHSQTALRVTAERAMNTRLEGGCQVPIGSYAEIINGEIWLRALVGAPDGSVMVRGERRGSPEQAEQMGISLAEELLENGARAILTEVYNGETPA | not soluble
8 | MNYELLTTENAPVKMWTKGVPVEADARQQLINTAKMPFIFKHIAVMPDVHLGKGSTIGSVIPTKGAIIPAAVGVDIGCGMNALRTALTAADLPENLAELRQAIETAVPHGRTTGRCKRDKGAWENPPFNVDAKWAELEAGYQWLTQKYPRFLNTNNYKHLGTLGTGNHFIEICLDESEQVWIMLHSGSRGIGNAIGTYFIDLAQKEMQDQLETLPSRDLAYFMEGTEYFDDYLRAVAWAQLFASLNRDAMMENVVTALQSITQKTVRQPQTLAMEEINCHHNYVQKEQLFGEEIYVTRKGAVSARAGQYGIIPGSMGAKSFIVRGLGNEESFCSCSHGAGRVMSRTKAKKLFSVEDQIRATAHVECRKDAEVIDEIPMAYKDIDAVMAAQSDLVEVIYTLRQVVCVKGLEHHHHHH | soluble
9 | MSATAKHDSNASPNSDSEDGHHHNNKKECAIEYLKARLNSASAVACGYLQAFVSKTQDFAKVCFLELQNPVVLVNLLLHSSVVCYLCNGYANHNARFLKGKPNSTVLATTAGALGLLTLDGIISKKYYSRYDKK | soluble
10 | METALYLLPVTLGDTPLEQVLPSYNTEIIRGIRHFIVEDVRSARRFLKKVDREIDIDSLTFYPLNKHTSPEDISGYLKPLAGGASMGVISEAGCPAVADPGADVVAIAQRQKLKVIPLVGPSSIILSVMASGFNGQSFAFHGYLPIEPGERAKKLKTLEQRVYAESQTQLFIETPYRNHKMIEDILQNCRPQTKLCIAANITCEGEFIQTRTVKDWKGHIPELSKIPCIFLLYKLEHHHHHH | soluble
11 | GIPMETKGGTVKAASGFNATEDAQVLRKAMKGLGTDEDAIIGVLACRNTAQRQEIRTAYKSTIGRDLLEDLKSELSSNFEQVILGMMTPTVLYDVQELRRAMKGAGTDEGCLIEILASRNPEEIRRINQTYQQQYGRSLEEDICSDTSFMFQRVLVSLTAGGRDEGNYLDDALVKQDAQDLYEAGEKRWGTDEVKFLSILCSRNRNHLLHVFDEYKRISQKDIEQSIKSETSGSFEDALLAIVKCMRNKPAYFAERLYKSMKGLGTDDSTLIRVMVSRAEIDMLDIRANFKRLYGKSLYSFIKGDTSGDYRKVLLILCGGDD | soluble
12 | MFFQSIYQMMSAGTDLNINIRRTDGKLSVAVIPKRTTLKDEAGQAIVPLILNGTPMELDGQFLQIITTPLQKAQGILTNLETFEQQARLAATQGKAAGTANDKKTKEAREKQEKMEKLLKRAEEAFTAGRYSEATTCFRQAKVLADTDRQKQIEARIQEVQKESSQGCLFPETDTQPLPQQPPANGTANGNRPDGQMRMFTSQPPQQPVQQAIPQPVQQPVPRPQIVQPQPVPQYYPGTPQPQPMYEGYCRNPANGSPQQTAEQPQTYFLQPGGQYPQTQPWQQPQPVPLQPQATVIQTTRENTGREYQSPPQPAAEALTFDKDDESDRELLREDPYAEYIDFPQECRMKDETQAELICC | not soluble
13 | MANFVQLSETPAACSSNPCGPEAAGTCKETNSGYICRCNQGYRISLDGTGNVTCIVRQESG | soluble
14 | MGSDKIHHHHHHMANTSSDWAGAPQNASADGEFVRDTNYIDDRIVADVPAGSEPIAQEDGTFHWPVEAGRYRLVAARACPWAHRTVITRRLLGLENVISLGLTGPTHDVRSWTFDLDPNHLDPVLQIPRLQDAYFNRFPDYPRGITVPALVEESSKKVVTNDYPSITIDFNLEWKQFHREGAPNLYPAELREEMAPVMKRIFTEVNNGVYRTGFAGSQEAHNEAYKRLWVALDWLEDRLSTRRYLMGDHITEADIRLYPTLVRFDAVYHGHFKCGRNKITEMPNLWGYLRDLFQTPGFGDTTDFTEIKQHYYITHAEINPTRIVPVGPDLSGFATPHGREKLGGSPFAEGVTLPGPIPAGEEVKNPEPFQK | not soluble
15 | MGSDKIHHHHHHLPAHLTPIQMEPEKALLRVHCQSDIDQLLSESVVFTLLSERNLGPKMLGVFPGGRFEQFIPSRALQCLEISKPGLSKLIAPIVARVHTLDAPIPKEPQTLQTARQWLERFKKTPAGERPIEMYLTQAKVPKSDYPSTITVAQLERELNFVEFFLQHSHSPVVFSHNDLQEGNFLLIDGYKLADDGTVLTPDGKPTNDDPLSLIDFEYCSYNYRGFDLGNHFCEYGYDYNEAEAPYYKIHQHYFEVEKERKVFCEAYLDEVYKMRACGDNPHFPSDLVTGDREKDLNKIIEESILFMPVSNIFWVCWSLINAEESSIAFDYGAYGRDRLALYFHQKKNLEKYLSNL | not soluble
16 | MSLNPRPGKVVIYSEPDVSEKCIEVFSDIQDCSSWSLSPVILIKVVRGCWILYEQPNFEGHSIPLEEGELELSGLWGIEDILERHEEAESDKPVVIGSIRHVVQDYRVSHIDLFTEPEGLGILSSYFDDTEEMQGFGVMQKTCSMKVHWGTWLIYEEPGFQGVPFILEPGEYPDLSFWDTEAAYIGSMRPLKMGGRKVEFPTDPKVVVYEKPFFEGKCVELETGMCSFVMEGGETEEATGDDHLPFTSVGSMKVLRGIWVAYEKPGFTGHQYLLEEGEYRDWKAWGGYNGELQSLRPILGDFSNAHMIMYSEKNFGSKGSSIDVLGIVANLKETGYGVKTQSINVLSGVWVAYENPDFTGEQYILDKGFYTSFEDWGGKNCKISSVQPICLDSFTGPRRRNQIHLFSEPQFQGHSQSFEETTSQIDDSFSTKSCRVSGGSWVVYDGENFTGNQYVLEEGHYPCLSAMGCPPGATFKSLRFIDVEFSEPTIILFEREDFKGKKIELNAETVNLRSLGFNTQIRSVQVIGGIWVTYEYGSYRGRQFLLSPAEVPNWYEFSGCRQIGSLRPFVQKRIYFRLRNKATGLFMSTNGNLEDLKLLRIQVMEDVGADDQIWIYQEGCIKCRIAEDCCLTIVGSLVTSGSKLGLALDQNADSQFWSLKSDGRIYSKLKPNLVLDIKGGTQYDQNHIILNTVSKEKFTQVWEAMVLYTEGHHHHHH | not soluble
17 | MTQRDTGRLDAIVLAAGRGVRFGGGKLTALLDGDPLVAAALLTAFLAPARRVVVAVGPEPDVRQAVEATATRLLARERLVLVPIDDPSAGMGASLAAAARSLPGDTDGVFVFLGDMPRIDPATPRHLAAALRDPGDIVAPTYLGRRGHPVLFGARWAPVLGALSGDEGARAIVDKAGESLVLVPVDDPGVHLDVDRPSDLARVQTDRRTLLEHHHHHH | soluble
18 | MGSDKIHHHHHHMHDYYQLVTVADLPQDNRQILDTLTAIGAGKLPNDLRLLNYYRSIPVNYGATVESVERGSVELTVNQQQAIVMQLEKQVFLKSGHFPKDVLAAVTYVNIDKSVAILANFAYAVIRSERRQFVRVEVKDKIEASFSGDGFTVAGLLNDISLGGVAISATIPTHPDAGIKGKVTLRLPGGPFEMPAQVLRVIPAYYTDLCIIEIQPDNRTEKGISQYIFQRQVEIIRELKDSIF | not soluble
19 | GPGSMVDPSVLLAYCPTHDFQRIEAVVREWPGVEAVGSLRTKEGKENTTSVFIKFSDKEAARDATSRIDAVPGLVRKIEEPKAKQRMRKMGKNMLIDPAMEIFSFGATDKGDVTFNERKREGNRRRHPSVIGPGSGSERTSNKGNNAIRHHPFTPPARASVALVDNVPFNMTNDQVARLFSPFGELIDLSRYETMAMVFYRSPDSVLKCIQQLNGKTVKGKIITVSSGAITIPGLLAAVVGVQVHN | soluble
20 | GRDFRFSISPNFTWVKNAVEKLANGATEEINNNRIVGQPIGIIYGYETDGLFVDQAEIDAAPEQLVSKSGLKPGYVKYKDISGPDGVPDGKVDAQYDRTVLGSTTPKFYYGLNLSASYKGFDFSALLQGLGGHKRLIGSYMAYAFYNGGQIQRWQAESCWKEENPDKWAEYPRLETLNMNDTNLQTSDYWVRNASFLRVKNIQIGYTFPKAWTKKIGLENVRVYVSGQNLFSFNSFYKGWDPENEIGTGDSPSYYPVNSIYSFGFNFKF | not soluble
21 | MRSRPTEGNLLVSIGIPFLNPGPYLDLAVRSVFAQTYLNWELILVDDGSTDGSYERAVAIQDPRVRVLRDGQNKGLPARLNEIVRLAKGELVARMDADDAMHPLRLEKQVGFLQANPELDGVTTGAYLIDAEDRPIALLPGRQPSAQEVLARGGFLHPSLLARKSWFEAHPYSLDYPRAEDRELFVRTFKTSRLHVLSEPLYFYRWFGVPRGKTLRIGYRSERKVMWKYGPNLVGWGPSLRLIALSFGKELLTWFLEWTHLEKGFQTRRAFQPLLEMDQREALRTLKVIRETCVPGWD | soluble
